Measured values reported in a protein production outcome set (Wang et al. 2014).

experiment: label from the status in PepcDB records

Sequence	protein production
MNIRMGTKGKRPLRSLTPRDKIHAIQRIHDGESKASVARDIGVPESTLRGWCKNEDKLRFMSRQSATDNLCADALGDKMDGGGGGGGGAGGGGLLGPPEKRQRLDGALPLNFSNKLKFDELAFKRSPLNGLDYSTNKNLADLGYNGLPVDYAAFNGGVKAKVFGADINRPAADPSLNAISPLSSLTHLSGLTGISQSPLAISFNELTTNLNLLAQLNPGLAAMSGLNSF	not failed
MNIVIAGAGEVGTHLAKMLSQEEQNIVLIDPNPKRLELAAMRSELLPQVGNPLSPSDLLQANVKYADLFISVMPEEADNILACALASRLGAGKTLARINNNEFLKPDMAQYFRDMGVHTMIYPELLAAREIVSTIKNPWARQYVELFDGALVLVGVKVREGAHIVGKYLHELTRTGNKIFHIVAIKRDLETIIPKGGTQVLHGDIVFFATAQNHLDEVRKLAGKDNPPVHKVVIMGGSRIAIRSIEMIPRNIQVAIIEKDKEKSMRISAIAPTNVQVYNGDGRDSDILIEAGLDQTDVFIALTENSETNVLACLGAKRFGVFKTIAKEENIDYISLADRLDIGTLINKKLLAAGSIYRIFLGEDTSTVKCLTLANADVAELVAHRGAPVTKRPVKDLNIPEGITFGGMVRNGVPQMIHGDTVIEPYDHVVVFCLNTPLNILKDFFG	failed
MNIVSWKDANDEVAGGATTRREREVKEDQEETEVRATSGKTVIKKQPTSISSSSSSWMKSKDPRIVRVSRAFGGKDRHSKVCTLRGLRDRRVRLSVPTAIQLYDLQERLGVDQPSKAVDWLLDAAKEEIDELPPLPISPENFSIFNHHQSFLNLGQRPGQDPTQLGFKINGCVQKSTTTSREENDREKGENDVVYTNNHHVGSYGTYHNLEHHHHHHQHLSLQADYHSHQLHSLVPFPSQILVCPMTTSPTTTTIQSLFPSSSSAGSGTMETLDPRQMVSHFQMPLMGNSSSSSSQNISTLYSLLHGSSSNNGGRDIDNRMSSVQFNRTNSTTTANMSRHLGSERCTSRGSDHHM	failed
MNKFLRVLFILVILAMTDAIIFQLFFPTYMGSHSGYGISVGWQREIGIWNVTVLVILITVNLKYDWFYLRAVLMALIIGGLGIGTNHFLSYLQYRHSVNAIGALENYLLVLGWIIGWWLENSSRKRV	failed
MNKFVKSLLVAGSVAALAACSSSNNDAAGNGAAQTFGGYSVADLQQRYNTVYFGFDKYDITGEYVQILDAHAAYLNATPAAKVLVEGNTDERGTPEYNIALGQRRADAVKGYLAGKGVDAGKLGTVSYGEEKPAVLGHDEAAYSKNRRAVLAY	not failed
MNKKIFYITILLHLPNLLFSYSTKYDIEVKMSAFVMSLAIIVISSISIGNLVAKIGIPKVIGQITAGIILSPNAFGKIQIPLLFPLGITQIGENYLINEKIFAISTIASIILLFTAGLETDLKLFIKFLPRGGIIGITEVVGTFTSFVLMASIIFNVPLISPTSLFIGIIGTPTSAGIAASILSAKKKMSTSEGVTIISTSIIDDVLSMLMLTSVITISRSISDLDIASSIKAIVQNIVIWLCLTFSLIYISETLSRLLKKLNSVTLATVITLSLALTIASIFQNLGMSFVVGAYVFGLAMSKTDIVYVIQDKLTIFERFFIPIFFTSIGLMSDINEILSKEVLILGLAISAIAIITKSIFCFIPALFLGFNKLGALKIATGMVPRGEVSLIMANVALSSGFISQKIFGIIIIMVFLPTIIATPIINFLFKINKSGLKKELPIDQNTHICVSFEYDNLAKILIWDFKNELRKEGFFTQQIKNDSSQYINARKNNISFSIKREGSKITFECPNNHLIIIQDLFRETILNLEKITKEVETVSLRAKKLDYSINYDKILSNINLNKRIKKENIILELKSSNKADVIRELLSVINIEIDKERIFQDLMEREKLITTALKEGFAIPHLKTNLISKIHIAIGISHEGIDFNALDKNLSHVFILILCPAKDYVSYPRILASVVGKVDLYKKEILNAKTDKEIYNIIVS	failed
MNKKILATAVLGTGALSTLFAHQAEASTTHTVRSGESLWSISHHYGITVSKLKSLNGLSSNLIFPNQVLKVSGSSNYSSRSNYGNSSSTYTVRAGDSLSSIASRYGTTYRHIMNLNGLNSFLIFPGQQLKVSGSVSSNSHSSYNSNSGGSSSTYTVRYGDSLSSIASRYGTTYQHIMRLNGLNNFFIYPGQKLRVSGSASSNTYSTRSAQSTYYSSPVFNHRNLYDWGQCTWHVFNRRAAIGKGISTYWWNANNWDNAAARDGYRIDGNPTVGSIAQSDAGYYGHVAFVERVNSNGSILVSEMNFSASPGILTYRTIPAYQVRNYKFIH	failed
MNKKKFENLPKWNNFALFNFLAKDKENSLEVMEASRGFAVPGIVATNYETAEEAANVVKELQTTAPVISVGLGGGGDWQNWRDVLHIARLAPNSHINQPIETAGLTNDLLPETYTNALVRPTGKVGIVKLSSGDEITAEEAVDYCLSANIPSIKFMSIEGTKYLDELVYLTKVAAEKGIYGIEPAGGIGAENILEITTAIKTTGIPFFMPHIFGKTIDKATGRTKPEEIEKIFAALEGK	failed
MNKLDGIPIPKTYGPLGNLPLLDKNRVSQSLWKIADEMGPIFQFKFADAIGVFVSSHELVKEVSEESRFDKNMGKGLLKVREFSGDGLFTSWTEEPNWRKAHNILLPSFSQKAMKGYHPMMQDIAVQLIQKWSRLNQDESIDVPDDMTRLTLDTIGLCGFNYRFNSFYREGQHPFIESMVRGLSEAMRQTKRFPLQDKLMIQTKRRFNSDVESMFSLVDRIIADRKQAESESGNDLLSLMLHAKDPETGEKLDDENIRYQIITFLIAGHETTSGLLSFAIYLLLKHPDKLKKAYEEADRVLTDPVPSYKQVQQLKYIRMILNESIRLWPTAPAFSLYAKEETVIGGKYLIPKGQSVTVLIPKLHRDQSVWGEDAEAFRPERFEQMDSIPAHAYKPFGNGQRACIGMQFALHEATLVLGMILQYFDLEDHANYQLKIKESLTLKPDGFTIRVRPRKKEAMTAMPGAQPEENGRQEERPSAPAAENTHGTPLLVLYGSNLGTAEEIAKELAEEAREQGFHSRTAELDQYAGAIPAEGAVIIVTASYNGNPPDCAKEFVNWLEHDQTDDLRGVKYAVFGCGNRSWASTYQRIPRLIDSVLEKKGAQRLHKLGEGDAGDDFEGQFESWKYDLWPLLRTEFSLAEPEPNQTETDRQALSVEFVNAPAASPLAKAYQVFTAKISANRELQCEKSGRSTRHIEISLPEGAAYQEGDHLGVLPQNSEVLIGRVFQRFGLNGNEQILISGRNQASHLPLERPVHVKDLFQHCVELQEPATRAQIRELAAHTVCPPHQRELEDLLKDDVYKDQVLNKRLTMLDLLEQYPACELPFARFLALLPPLKPRYYSISSSPQLNPRQTSITVSVVSGPALSGRGHYKGVASNYLAGLEPGDAISCFIREPQSGFRLPEDPETPVIMVGPGTGIAPYRGFLQARRIQRDAGVKLGEAHLYFGCRRPNEDFLYRDELEQAEKDGIVHLHTAFSRLEGRPKTYVQDLLREDAALLIHLLNEGGRLYVCGDGSRMAPAVEQALCEAYRIVQGASREESQSWLSALLEEGRYAKDVWDGGVSQHNVKADCIART	failed
MNKLNIKEYKTKAGEVRYILRGAYIGTDVLTGKQIKTDIRGRTKTGVKNELERLKNNFKKNGNTKGKESLETFEEVAESFFELYKLQRKIGSIDQMRSNLDNYTLPAFGNKRISKITTAQIQQQVIKWGKSAAAPLNGRQKRTTGQAKRYKLQFNIINRIFQHALSLGIIENNPCQSVIVPQVKVEQAKKEIKFYKKSELAKLFNYLESLKSGQWSNEYFKALLRLLVASGLRIGEAMALSWSDINFQNQTVSVSKTTVRRFQIQDTPKSNKSNRIISIDDKAIYVLKSWYFFQKKHFMKLGNPQQNLVFPKIEGGVMDYHNLIYKLNNIIKNAELPLLSFHGFRRSHASLCLNAEMSYKVIQERLGHSKLQLTMDLYSHLEPEKKNKELELFTKYANF	failed
MNKQFIILYFNIFLVFLGIGLVVPVLPVYLKDLGLKGSDLGILVAVFALAQMIISPFGGTLADKLGKKLIICIGLGLFAISEFLFAASHTFSLLIVSRILGGFSAGMVMPGVTGMIADISVGRDKAKNFGYMSAIINSGFILGPGMGGFLAEFSHRLPFYVAGFSGCVALILSIALIKNPKNSTQDGFTQYQPELLSKINWKVFLTPIILTLVLAFGLSAFETLFPLYTADKAHYSPLDISFAITGGGIAGAIFQVFFFDKFMKHFKELTFITYALLYSAIILLALTFVHSYWSIMIISFIVFIGFDMIRPAITNYFSNIAGNRQGFAGGLNSTFTSMGNFIGPLVAGTLYDINFEFPLYMSVLVMVLGMFVIFIEKMIRSRFSNI	failed
MNKQVIVRSACLALFVGLAGGCATGPGGGSIYVPVGSDDRRSAPEPPRTNIPDEQDEQVWRKSEQPTVTEPDSPSTRAPSYSESGDQLPAAALTLVRDADQRLRQGDSAGAIARLERAQRIAPRSSEVYFKLAEAYVAGDNLGAAEQFTLKGLSLAGNDERMQRSGWLLLADIRRARGNVAGADQAEARAAAL	failed
MNKVITDLDKALSALKDGDTILVGGFGLCGIPEYAIDYIYKKGIKDLIVVSNNCGVDDFGLGILLEKKQIKKIIASYVGENKIFESQMLNGEIEVVLTPQGTLAENLHAGGAGIPAYYTPTGVGTLIAQGKESREFNGKEYILERAITGDYGLIKAYKSDTLGNLVFRKTARNFNPLCAMAAKICVAEVEEIVPAGELDPDEIHLPGIYVQHIYKGEKFEKRIEKITTRSTK	failed
MNKYLSFIFASVLTLTGVQLSKASNPSDSLAIVSAKWERTSSLQGIQLKQASIEGLFGGKQSISILTIGRAEGYTAFIATTDSLTTTSQLAEQSRSSAAINGSYFSIKEGFSTCYLRKNEAVIDTTTTEERHLRVNGAVHMVDNNIRIIPWNDENEKKGFPLDGDILASGPLLMQDGKTCDFTTIDREFSETRHPRSAIALTKEGDIMLVAVDGRAEGHADGMSIAELAYLLRILKAHCALNLDGGGSTTLWVNGQVVNHPSDNKKFDNKGERKVHNIIAVRRLTNP	failed
MNLAKGLDVLKISSNVLGEDKVMYIPAIYTEDDATLIDTGLPGQGDLIIDALNKSNTSFDRLKNIIITHHDIDHIGNINYLREKSKNNIKVYAYKSEVSYITGEETPFKLYMLEQMVDKIDDKMLSMLNVMGLGFKSSYTKVDVSLDNHEKLNLGEEIEVIHTGGHTRGHICLYLKESKVLIAGDLLQVENGELKPVDVMHSNKQELKDAIKNISNYDIETIVFSHGGLYQRNIIETLKNLIIE	failed
MNLAVTVLEIVAPVFLLAAVGFGWVRMGFEYRLQFVTRLGTMLAVPCLIFVALMKTEIPGGDLSRFTLASALAILALTVVFGLIVRFSGLDRRTYLPPLLFGNTGNLGLPLCMFAFGIEGLSYAVVFFSLSALWSFSYGIHVVAGQGSLSKVVREPMVWATLLGALFLSQDWQTPRFLTNALELIGQMAVPLMLITLGVAMARLSIRRIGQALGLSLLKLAICFPVGWLVAQGFGLSGPALGVLVVQMSVPAAVSAYLLAERFGADADAVAGMVMVSTLLAVGALPLVLAAVL	failed
MNLAYETQSIAERREQLREEGKIELPLNVDTRKYLLSFIRYRDVLISLPLLIAGIVALYIIHRTGIGINSQNVIVCFAPWATFLLLLTIQHPDRKNISFFEHRIVWRIKYNNRQKLFVYTKGDLMGNKKEKDVREQLGISNIYSDCYETTDKRLVKVIKVSSINLSLLNNKEKRMIFQAYETFLNDLPKNLTLQISQIAQPVNLKNYFLFIQEKTSREQDMAKKLLAKGYLDFIDDIQKSKNMVSRNRYVIISKPFTAQNRESVLEELDRQAKILVSQIENMLGGRFQLKAEILNNEELFHLIYTCVDYENAQVNAEIKTSTFPITLGKETYIEMKKRWEKEVTEKII	failed
MNLCGDSEILKEDDNTKNFARKNPDPYPPTGTSLVYLDHLELCLCSTEWWNLLTCILDDAPKLRVLKLKLYRKHCVEYNESMEPWKQPDYVPICLSSYLEIFEWRQYNGEEQEREVAKYILENASRLKKAIFYLESAEKHGILKELECMARGSKKCQLVFD	failed
